The values that follow come from article PMC2631628.

Series [1] deals with hnRNP A1 (UniProt P09651). Description: competition. The conditions noted are these: Footprinting: RNA refolded in 2 mM MgCl2, 80 mM NaCl, 20 mM Tris-HCl pH 7.2; probing at 37 C for 10 min; EMSA and pull-down buffers not in the material. On the technique in general: In EMSA bound probe runs differently from free probe, usually more slowly.
The target in series [2] is hnRNP A1 (UniProt P09651). Description: footprinting (Pb(II)). The conditions noted are these: Footprinting: RNA refolded in 2 mM MgCl2, 80 mM NaCl, 20 mM Tris-HCl pH 7.2; probing at 37 C for 10 min; EMSA and pull-down buffers not in the material.

Sequence of hnRNP A1 (P09651 whole entry): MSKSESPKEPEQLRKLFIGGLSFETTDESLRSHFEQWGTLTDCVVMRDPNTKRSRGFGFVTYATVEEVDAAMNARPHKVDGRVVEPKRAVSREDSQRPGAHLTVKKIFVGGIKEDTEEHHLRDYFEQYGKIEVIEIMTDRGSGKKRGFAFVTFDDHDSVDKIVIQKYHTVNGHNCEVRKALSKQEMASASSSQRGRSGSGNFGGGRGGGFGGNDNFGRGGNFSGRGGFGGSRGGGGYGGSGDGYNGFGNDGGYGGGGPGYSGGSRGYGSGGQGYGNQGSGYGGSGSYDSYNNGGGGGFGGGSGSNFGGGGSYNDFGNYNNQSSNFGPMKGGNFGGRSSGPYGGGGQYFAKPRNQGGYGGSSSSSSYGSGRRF

Regarding “GGCGUGCAGGGCCUGCUGAUGUUGAGUGCUUUUUGUUCUAAGGUGCAUCUAGUGCAGAUAGUGAAGUAGAUUAGCAUCUACUGCCCUAAGUGCUCCUUCUGGCAUAAGAAGUUAUGUAUUCAUCCAAUAAUUC [pri-miR-18a]”, the binding entry with hnRNP A1 [1] is recorded as “binds”. As to “GGUGUUCUAAGGUGCAUCUAGUGCAGAUAGUGAAGUAGAUUAGCAUCUACUGCCCUAAGUGCUCCUUCUGGCA [pri-miR-18a_73nt]”, the binding entry with hnRNP A1 [2] was “binds”.
